In patent US20060154859A1 (YISSUM RESEARCH DEVELOPMENT COMPANY OF THE HEBREW …, published 2006):
Substitutions are numbered along the chain they refer to. Numbers in names are those of the source.

T1: long form of human leptin receptor (human, UniProt P48357 22-1165)
T1 construct: whole, on cells; The radioreceptor assay used a homogenate of the transfected BAF/3 cells; The proliferation assay used live BAF/3 1442-CI 4 cells; also called LEPR; OB-R
T1 sequence (looked up): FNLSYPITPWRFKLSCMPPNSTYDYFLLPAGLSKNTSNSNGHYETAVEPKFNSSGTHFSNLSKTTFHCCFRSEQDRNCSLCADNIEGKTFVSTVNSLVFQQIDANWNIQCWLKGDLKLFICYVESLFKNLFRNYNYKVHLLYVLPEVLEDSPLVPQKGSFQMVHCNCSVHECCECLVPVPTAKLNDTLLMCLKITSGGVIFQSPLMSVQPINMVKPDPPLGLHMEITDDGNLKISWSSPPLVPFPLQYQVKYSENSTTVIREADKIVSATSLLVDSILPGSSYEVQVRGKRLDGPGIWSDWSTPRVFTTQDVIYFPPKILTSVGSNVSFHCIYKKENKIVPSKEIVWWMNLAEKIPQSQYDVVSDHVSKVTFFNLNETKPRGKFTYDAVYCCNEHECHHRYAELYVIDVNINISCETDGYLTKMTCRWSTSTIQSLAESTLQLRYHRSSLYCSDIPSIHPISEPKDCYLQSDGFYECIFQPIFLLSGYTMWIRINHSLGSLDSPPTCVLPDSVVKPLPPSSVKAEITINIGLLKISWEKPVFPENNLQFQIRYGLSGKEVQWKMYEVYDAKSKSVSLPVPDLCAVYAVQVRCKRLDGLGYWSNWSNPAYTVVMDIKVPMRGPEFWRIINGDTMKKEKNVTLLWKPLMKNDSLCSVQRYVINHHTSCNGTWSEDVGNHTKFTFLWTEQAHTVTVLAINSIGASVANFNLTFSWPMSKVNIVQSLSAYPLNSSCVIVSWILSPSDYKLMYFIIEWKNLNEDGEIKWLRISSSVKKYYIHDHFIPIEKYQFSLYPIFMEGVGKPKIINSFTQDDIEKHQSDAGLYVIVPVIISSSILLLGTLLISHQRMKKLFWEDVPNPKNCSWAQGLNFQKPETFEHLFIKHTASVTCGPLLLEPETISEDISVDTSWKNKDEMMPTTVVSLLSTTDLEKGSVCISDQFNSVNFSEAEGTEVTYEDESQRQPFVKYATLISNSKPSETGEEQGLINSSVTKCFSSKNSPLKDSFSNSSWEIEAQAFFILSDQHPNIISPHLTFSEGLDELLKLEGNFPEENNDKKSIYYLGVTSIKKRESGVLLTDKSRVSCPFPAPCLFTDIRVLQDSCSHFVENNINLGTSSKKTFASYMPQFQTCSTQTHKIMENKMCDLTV

B1: ovine leptin L39A/D40A/F41A mutant (ligand)
chain: VSIRKVQDDTKTLIKTIVTRINDISHTQSVSSKQRVTGAAAIPGLHPLLSLSKMDQTLAIYQQILASLPSRNVIQISNDLENLRDLLHLLAASKSCPLPQVRALESLESLGVVLEASLYSTEVVALSRLQGSLQDMLRQLDLSPGC
notes: also called L39A/D40A/F41A (ovine)
B2: ovine leptin F41A/I42A mutant (ligand)
chain: B1 chain with A39L, A40D, I42A
notes: also called F41A/I42A (ovine)
B3: ovine leptin L39A/D40A mutant (ligand)
chain: B1 chain with A41F
notes: also called L39A/D40A (ovine)
B4: ovine leptin L39A/D40A/F41A/I42A mutant (ligand)
chain: B1 chain with I42A
notes: also called L39A/D40A/F41A/I42A (ovine)
B5: human leptin L39A/D40A/F41A mutant (ligand)
chain: VPIQKVQDDTKTLIKTIVTRINDISHTQSVSSKQKVTGAAAIPGLHPILTLSKMDQTLAVYQQILTSMPSRNVIRISNDLENLRDLLHVLAFSKSCHLPWASGLETLDSLGGVLEASGYSTEVVALSRLQGSLQDMLWQLDLSPGC
notes: Expressed with an extra Met-Ala at the N-terminus, Met removed; also called L39A/D40A/F41A (human)
B6: human leptin L39A/D40A/F41A/I42A mutant (ligand)
chain: B5 chain with I42A
notes: Expressed with an extra Met-Ala at the N-terminus, Met removed; also called L39A/D40A/F41A/I42A (human)
B7: human leptin F41A/I42A mutant (ligand)
chain: B5 chain with A39L, A40D, I42A
notes: Expressed with an extra Met-Ala at the N-terminus, Met removed; also called F41A/I42A (human)
B8: human leptin L39A/D40A mutant (ligand)
chain: B5 chain with A41F
notes: also called L39A/D40A (human)

target: T1, long form of human leptin receptor; assay: radioreceptor competition assay against iodinated leptin, homogenate of BAF/3 cells with long form of human leptin receptor, average of two experiments
Experimental: (vi) Binding assays. Radiolabeled ovine ¹²⁵I-leptin served as a ligand and all other nonlabeled leptins or their mutants as competitors. The experiments were conducted with homogenates of BAF/3 cells stably transfected with the long form of human leptin receptor. The cells were cultured in RPMI 1640 supplemented with 5% FCS in the -presence of IL-3 to minimize leptin receptors down-regulation till concentration of 10⁶ cells/ml was reached. Then the cells were spun and stored at −70° C. […] Each tube contained 150 μl of reaction buffer, 100 μl ¹²⁵I-human leptin (700,000-800,000 cpm) and 100 μl of different leptin solutions (providing 0-5000 ng/tube) in reaction buffer and the reaction was started by addition of 150 μl homogenate. The tubes were incubated for 18 h at room temperature. Then the leptin-receptor complex was precipitated by adding 250 μl of 1% (w/v) bovine immunoglobulin and 500 μl of 20% (w/v) polyethylene glycol. The tubes were thoroughly mixed, incubated for 30 min at 4° C., and centrifuged at 12,000 g for 15 min at 4° C. Then supernatant was carefully aspirated and the precipitates were counted in a γ counter. Human leptin was iodinated according to a protocol previously described for the iodination of hGH (Gertler et al., 1984).
Iodinated human leptin served as the ligand in all competitive experiments and the respective wild-type (WT) human and ovine leptins and their alanine mutants as competitors. Freshly prepared homogenate of BAF/3 cells stably transfected with the long form of human leptin receptor served as receptor source. Homogenate from 1.75×10⁶ cells was used per tube giving 6 to 7% specific binding.

IC50 [nM]	Binder
2.2	B1
3.44	B2
1.83	B3
1.83	B4
5.21	B5
5.43	B6
6.82	B7
4.16	B8

target: T2, recombinant chicken leptin binding domain (chLBD) (chicken); assay: SPR (Biacore 3000), leptin mutant amine-coupled to CM5 chip, soluble chLBD as analyte, 25 C, 1:1 Langmuir fit, mean of 2 experiments
T2 construct: The 1:1 complex with leptin has a predicted mass of 40.5 kDa, so chLBD is about 24.5 kDa
Experimental: (v) Kinetic measurements of leptin and leptin mutants interaction with chLBD. All experiments were performed at 25° C. using surface plasmon resonance (SPR) methodology. The kinetics and equilibrium constants for the interactions between human and chicken recombinant LBD and chicken and hLep were determined using the Biacore 3000 system (Uppsala, Sweden). Leptin (human, ovine or chicken) was immobilized in a flow cell of a research-grade CM5 (carboxymethyldextran) sensor chip using amine-coupling chemistry (Johnsson et al., 1991). The immobilization steps were carried out at a flow rate of 5 μl/min in HBS-EB buffer. The surface was activated for 7 min with a mixture of 0.05 M N-hydroxysuccinimide and 0.2 M N-ethyl-N′(3-dimetylaminopropyl)-carbodiimide hydrochloride. Leptin was injected at a concentration of 50 μg/ml in 10 mM acetate, pH 3.5, until the desired level (1000 resonance units) was achieved. 1 M ethanolamine, pH 8.5, was injected for 7 min to block the remaining activated groups. A control surface was prepared by activating the carboxyl groups and then blocking the activated groups by ethanolamine as described. […] Regeneration of the surface after each interaction was performed by using 10-μl pulse of 10 mM glycine buffer, pH 2. The experiments were controlled by the kinetics Wizard of the Biacore control software, which corrects automatically for refractive index changes and non-specific binding by subtraction of the responses obtained for the control surface from the data obtained for the interactions between LBD and leptin. The obtained binding curves were fitted to the association and dissociation phases at all LBD concentrations simultaneously using Biacore evaluation software. In all cases, the best fit was obtained for a simple bimolecular interaction (Langmuir model).
To further characterize the binding capacities of chLBD with human or ovine leptins and their mutants the surface plasmon resonance (SPR) technique using respective leptin (or leptin mutant) immobilized on a sensor chip by amine coupling and binding of soluble chLBD was employed.

Kd [nM]	koff [s⁻¹]	kon [M⁻¹ s⁻¹]	Binder
13.8	0.0025	181000	B1
12.8	0.0032	250000	B2
24	0.0057	237000	B3
29.3	0.0032	109000	B4
28.5	0.0102	358000	B5
50.3	0.0068	135000	B6
31.8	0.0115	362000	B7
22.9	0.0125	545000	B8
